Experimental data published in patent US20220267403A1 (FRED HUTCHINSON CANCER RESEARCH CENTER, published 2022).

T1: UTY peptide on HLA-A*02:01 (human)
T1 peptide: KAFQDVLYV

T2: 5T4 17-25 variant R1A (alanine-substituted) peptide on HLA-A*02:01 (human)
T2 peptide: ALARLALVL

T3: DDX3Y peptide on HLA-A*02:01 (human)
T3 peptide: FLLDILGAT

T4: 5T4 17-25 variant R4A (alanine-substituted) peptide on HLA-A*02:01 (human)
T4 peptide: RLAALALVL

T5: 5T4 (trophoblast glycoprotein, TPBG) peptide on HLA-A*02:01 (human)
T5 peptide: RLARLALVL

B1: Clone15-3F10 (TCR, V domains shown)
Valpha: AQTVTQSQPEMSVQEAETVTLSCTYDTSENNYYLFWYKQPPSRQMILVIRQEAYKQQNATENRFSVNFQKAAKSFSLKISDSQLGDTAMYFCASMYSGGGADGLTFGKGTHLIIQP
Vbeta: EAQVTQNPRYLITVTGKKLTVTCSQNMNHEYMSWYRQDPGLGLRQIYYSMNVEVTDKGDVPEGYKVSRKEKRNFPLILESPSPNQTSLYFCASSFFSNTGELFFGEGSRLTVL
B2: Clone3-6C3 (TCR, V domains shown)
Valpha: AQTVTQSQPEMSVQEAETVTLSCTYDTSESDYYLFWYKQPPSRQMILVIRQEAYKQQNATENRFSVNFQKAAKSFSLKISDSQLGDAAMYFCSSGGGADGLTFGKGTHLIIQP
Vbeta: NAGVTQTPKFRVLKTGQSMTLLCAQDMNHEYMYWYRQDPGMGLRLIHYSVGEGTTAKGEVPDGYNVSRLKKQNFLLGLESAAPSQTSVYFCASMDLAFKQYFGPGTRLTVT
B3: Clone2-6B8 (TCR, V domains shown)
Valpha: QKEVEQNSGPLSVPEGAIASLNCTYSDRGSQSFFWYRQYSGKSPELIMFIYSNGDKEDGRFTAQLNKASQYVSLLIRDSQPSDSATYLCAVPDDAGNMLTFGGGTRLMVKP
Vbeta: DAGITQSPRYKITETGRQVTLMCHQTWSHSYMFWYRQDLGHGLRLIYYSAAADITDKGEVPDGYVVSRSKTENFPLTLESATRSQTSVYFCASSELPAGGTNEQFFGPGTRLTVL
B4: Clone21-7A10 (TCR, V domains shown)
Valpha: GQSLEQPSEVTAVEGAIVQINCTYQTSGFYGLSWYQQHDGGAPTFLSYNALDGLEETGRFSSFLSRSDSYGYLLLQELQMKDSASYFCAVRDDYGQNFVFGPGTRLSVLP
Vbeta: NAGVMQNPRHLVRRRGQEARLRCSPMKGHSHVYWYRQLPEEGLKFMVYLQKENIIDESGMPKERFSAEFPKEGPSILRIQQVVRGDSAAYFCASSPQGDNEQFFGPGTRLTVL
B5: Clone19-5C2 (TCR, V domains shown)
Valpha: AQTVTQSQPEMSVQEAETVTLSCTYDTSESDYYLFWYKQPPSRQMILVIRQEAYKQQNATENRFSVNFQKAAKSFSLKISDSQLGDAAMYFCAYRSGSDGGSQGNLIFGKGTKLSVKP
Vbeta: ETGVTQTPRHLVMGMTNKKSLKCEQHLGHNAMYWYKQSAKKPLELMFVYSLEERVENNSVPSRFSPECPNSSHLFLHLHTLQPEDSALYLCASSQVSGYEQYFGPGTRLTVT

What follows are binders tested against T6, HLA-A*0201 on the surface of T2 cells (human) (assay: HLA-A2 stabilization on T2 cells, BB7.2 staining, flow cytometry).
T6 construct: Class I molecule that the test peptides load in the HLA-A2 stabilization assay; also called HLA-A2
Method: Aliquots of 2×10⁵ T2 cells were cultured in serum-free RPMI media supplemented with human β₂-microglobulin at 5 μg/mL plus the test peptide.

binding result | Binder
no binding | RLARAALVL (Alanine-substituted variant of 5T4p17) [L5A synthetic peptide RLARAALVL]
binds | ALARLALVL (Alanine-substituted variant of 5T4p17) [R1A synthetic peptide ALARLALVL]
no binding | RLARLALAL (Alanine-substituted variant of 5T4p17) [V8A synthetic peptide RLARLALAL]
binds | RLAALALVL (Alanine-substituted variant of 5T4p17) [R4A synthetic peptide RLAALALVL]
no binding | RLARLAAVL (Alanine-substituted variant of 5T4p17) [L7A synthetic peptide RLARLAAVL]

Biological target: T1, UTY peptide on HLA-A*02:01
Assay: killing

Binder | binding result
B1 | no recognition
B2 | no recognition
B3 | no recognition
B4 | no recognition
B5 | no recognition

Biological target: T2, 5T4 17-25 variant R1A …
Assay: killing

Binder | binding result
B1 | recognises
B2 | no recognition
B3 | recognises
B4 | recognises
B5 | no recognition

Biological target: T3, DDX3Y peptide on HLA-A*02:01
Assay: killing

Binder | binding result
B1 | no recognition
B2 | no recognition
B3 | no recognition
B4 | no recognition
B5 | no recognition

Biological target: T4, 5T4 17-25 variant R4A …
Assay: killing

Binder | binding result
B1 | no recognition
B2 | no recognition
B3 | no recognition
B4 | no recognition
B5 | no recognition

Biological target: T5, 5T4 (trophoblast glycoprotein, TPBG) …
Assay: multimer staining

binding result | Binder
recognises | B1
recognises | B2
recognises | B3
recognises | B4
recognises | B5
